Experimental data as given in paper PMC3477848 (Biochemistry, 2012).
Read-outs that look alike come from different tables or passages of the source.

Columns and labels:
[1] = target: T1, Dpo4 (SsoDpo4, Y-family DNA polymerase) (Sulfolobus solfataricus, UniProt Q97W02 1-352); experiment: ITC
T1 sequence: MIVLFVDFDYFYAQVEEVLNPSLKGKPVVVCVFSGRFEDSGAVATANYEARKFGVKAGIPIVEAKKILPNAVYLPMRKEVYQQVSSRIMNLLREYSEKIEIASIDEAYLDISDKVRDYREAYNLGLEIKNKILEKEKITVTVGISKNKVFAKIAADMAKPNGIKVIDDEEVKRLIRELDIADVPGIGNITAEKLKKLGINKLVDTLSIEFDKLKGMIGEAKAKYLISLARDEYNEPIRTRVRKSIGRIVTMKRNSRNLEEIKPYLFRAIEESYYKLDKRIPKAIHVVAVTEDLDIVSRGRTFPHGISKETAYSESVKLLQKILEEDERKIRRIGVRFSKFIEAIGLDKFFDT

[2] = target: T1, Dpo4 (SsoDpo4, Y-family DNA polymerase); experiment: ITC; remark: listed apart in the source
cross-linking = target: the molecule itself; experiment: cross-linking

B1: 37-nt hairpin primer-template, unlabeled (structured_DNA)
DNA: TTTTTTTTTTCCCGGGCCGGCGTTTCGCCGGCCCGGG
With B1 as the binder, how does the Ka [1] read?
The Ka was 652000 M⁻¹.

What about the Ka [2] of the same binder?
Its Ka is 2.23e+06 M⁻¹.

B2: Dpo4, wild-type untagged, Y-family lesion bypass (repair) DNA polymerase of Sulfolobus solfataricus (enzyme)
chain: MIVLFVDFDYFYAQVEEVLNPSLKGKPVVVCVFSGRFEDSGAVATANYEARKFGVKAGIPIVEAKKILPNAVYLPMRKEVYQQVSSRIMNLLREYSEKIEIASIDEAYLDISDKVRDYREAYNLGLEIKNKILEKEKITVTVGISKNKVFAKIAADMAKPNGIKVIDDEEVKRLIRELDIADVPGIGNITAEKLKKLGINKLVDTLSIEFDKLKGMIGEAKAKYLISLARDEYNEPIRTRVRKSIGRIVTMKRNSRNLEEIKPYLFRAIEESYYKLDKRIPKAIHVVAVTEDLDIVSRGRTFPHGISKETAYSESVKLLQKILEEDERKIRRIGVRFSKFIEAIGLDKFFDT
How did the “stoichiometry N” value (cross-linking) turn out when B2 was run?
The value was 2.
